# According to publication PMC8298264, “Function of cofactor Akirin2 in the regulation of gene expression in model human neutrophil-like HL60 cells” (Bioscience Reports, 2021):
# System: human HL60 cells
# Assay: SWATH-MS proteomics, differential protein representation, akirin2 KO vs WT HL60 cells
# Assay type: cell-based
# Conditions: akirin2 KO vs WT HL60 cells
# In short: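 WT and akirin2 KO HL60 lysates (150 µg, n=3 biological replicates) were FASP trypsin-digested and desalted. A spectral library was built by IDA from 3 µg digests, then 5 µg per sample went to variable-window SWATH DIA over a 120-min 5–30% acetonitrile gradient. Identifications were accepted at 1% global FDR, with total-area-sum normalization.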
# [1] = SWATH-MS, sheet "Under-represented in KO"
# [2] = SWATH-MS, under-represented in KO
# [3] = sheet "Under-represented in KO"
Molecule,Fold Change [1],Log (Fold Change) [1],further results
"sp¦Q9NVI7¦ATD3A_HUMAN (protein, UniProt Q9NVI7 2-586, looked up) ATPase family AAA …: SWLFGINKGPKGEGAGPPPPLPPAQPGAEGGGDRGLGDRPAPKDKWSNFDPTGLERAAKAARELEHSRYAKDALNLAQMQEQTLQLEQQSKLKEYEAAVEQLKSEQIRAQAEERRKTLSEETRQHQARAQYQDKLARQRYEDQLKQQQLLNEENLRKQEESVQKQEAMRRATVEREMELRHKNEMLRVEAEARARAKAERENADIIREQIRLKAAEHRQTVLESIRTAGTLFGEGFRAFVTDWDKVTATVAGLTLLAVGVYSAKNATLVAGRFIEARLGKPSLVRETSRITVLEALRHPIQVSRRLLSRPQDALEGVVLSPSLEARVRDIAIATRNTKKNRSLYRNILMYGPPGTGKTLFAKKLALHSGMDYAIMTGGDVAPMGREGVTAMHKLFDWANTSRRGLLLFVDEADAFLRKRATEKISEDLRATLNAFLYRTGQHSNKFMLVLASNQPEQFDWAINDRINEMVHFDLPGQEERERLVRMYFDKYVLKPATEGKQRLKLAQFDYGRKCSEVARLTEGMSGREIAQLAVSWQATAYASEDGVLTEAMMDTRVQDAVQQHQQKMCWLKAEGPGRGDEPSPS",0.7506,-0.1246,–
"sp¦P36957¦ODO2_HUMAN (protein, UniProt P36957 68-453, looked up) Dihydrolipoyllysine-residue …: DDLVTVKTPAFAESVTEGDVRWEKAVGDTVAEDEVVCEIETDKTSVQVPSPANGVIEALLVPDGGKVEGGTPLFTLRKTGAAPAKAKPAEAPAAAAPKAEPTAAAVPPPAAPIPTQMPPVPSPSQPPSGKPVSAVKPTVAPPLAEPGAGKGLRSEHREKMNRMRQRIAQRLKEAQNTCAMLTTFNEIDMSNIQEMRARHKEAFLKKHNLKLGFMSAFVKASAFALQEQPVVNAVIDDTTKEVVYRDYIDISVAVATPRGLVVPVIRNVEAMNFADIERTITELGEKARKNELAIEDMDGGTFTISNGGVFGSLFGTPIINPPQSAILGMHGIFDRPVAIGGKVEVRPMMYVALTYDHRLIDGREAVTFLRKIKAAVEDPRVLLLDL",0.7478,-0.1262,–
"sp¦Q1KMD3¦HNRL2_HUMAN (protein, UniProt Q1KMD3 1-747, looked up) Heterogeneous nuclear …: MEVKRLKVTELRSELQRRGLDSRGLKVDLAQRLQEALDAEMLEDEAGGGGAGPGGACKAEPRPVAASGGGPGGDEEEDEEEEEEDEEALLEDEDEEPPPAQALGQAAQPPPEPPEAAAMEAAAEPDASEKPAEATAGSGGVNGGEEQGLGKREEDEPEERSGDETPGSEVPGDKAAEEQGDDQDSEKSKPAGSDGERRGVKRQRDEKDEHGRAYYEFREEAYHSRSKSPLPPEEEAKDEEEDQTLVNLDTYTSDLHFQVSKDRYGGQPLFSEKFPTLWSGARSTYGVTKGKVCFEAKVTQNLPMKEGCTEVSLLRVGWSVDFSRPQLGEDEFSYGFDGRGLKAENGQFEEFGQTFGENDVIGCFANFETEEVELSFSKNGEDLGVAFWISKDSLADRALLPHVLCKNCVVELNFGQKEEPFFPPPEEFVFIHAVPVEERVRTAVPPKTIEECEVILMVGLPGSGKTQWALKYAKENPEKRYNVLGAETVLNQMRMKGLEEPEMDPKSRDLLVQQASQCLSKLVQIASRTKRNFILDQCNVYNSGQRRKLLLFKTFSRKVVVVVPNEEDWKKRLELRKEVEGDDVPESIMLEMKANFSLPEKCDYMDEVTYGELEKEEAQPIVTKYKEEARKLLPPSEKRTNRRNNRNKRNRQNRSRGQGYVGGQRRGYDNRAYGQQYWGQPGNRGGYRNFYDRYRGDYDRFYGRDYEYNRYRDYYRQYNRDWQSYYYHHPQDRDRYYRNYYGYQGYR",–,–,Fold Change [2]: 0.7447; Log (Fold Change) [2]: -0.128
"sp¦Q6RFH5¦WDR74_HUMAN (protein, UniProt Q6RFH5 1-385, looked up) WD repeat-containing protein …: MAAAAARWNHVWVGTETGILKGVNLQRKQAANFTAGGQPRREEAVSALCWGTGGETQMLVGCADRTVKHFSTEDGIFQGQRHCPGGEGMFRGLAQADGTLITCVDSGILRVWHDKDKDTSSDPLLELRVGPGVCRMRQDPAHPHVVATGGKENALKIWDLQGSEEPVFRAKNVRNDWLDLRVPIWDQDIQFLPGSQKLVTCTGYHQVRVYDPASPQRRPVLETTYGEYPLTAMTLTPGGNSVIVGNTHGQLAEIDLRQGRLLGCLKGLAGSVRGLQCHPSKPLLASCGLDRVLRIHRIQNPRGLEHKVYLKSQLNCLLLSGRDNWEDEPQEPQEPNKVPLEDTETDELWASLEAAAKRKLSGLEQPQGALQTRRRKKKRPGSTSP",0.7453,-0.1277,–
"sp¦P07954¦FUMH_HUMAN (protein, UniProt P07954 45-510, looked up) Fumarate hydratase, …: ASQNSFRIEYDTFGELKVPNDKYYGAQTVRSTMNFKIGGVTERMPTPVIKAFGILKRAAAEVNQDYGLDPKIANAIMKAADEVAEGKLNDHFPLVVWQTGSGTQTNMNVNEVISNRAIEMLGGELGSKIPVHPNDHVNKSQSSNDTFPTAMHIAAAIEVHEVLLPGLQKLHDALDAKSKEFAQIIKIGRTHTQDAVPLTLGQEFSGYVQQVKYAMTRIKAAMPRIYELAAGGTAVGTGLNTRIGFAEKVAAKVAALTGLPFVTAPNKFEALAAHDALVELSGAMNTTACSLMKIANDIRFLGSGPRSGLGELILPENEPGSSIMPGKVNPTQCEAMTMVAAQVMGNHVAVTVGGSNGHFELNVFKPMMIKNVLHSARLLGDASVSFTENCVVGIQANTERINKLMNESLMLVTALNPHIGYDKAAKIAKTAHKNGSTLKETAIELGYLTAEQFDEWVKPKDMLGPK",0.754,-0.1226,–
"sp¦P24752¦THIL_HUMAN (protein, UniProt P24752 34-427, looked up) Acetyl-CoA acetyltransferase, …: VSKPTLKEVVIVSATRTPIGSFLGSLSLLPATKLGSIAIQGAIEKAGIPKEEVKEAYMGNVLQGGEGQAPTRQAVLGAGLPISTPCTTINKVCASGMKAIMMASQSLMCGHQDVMVAGGMESMSNVPYVMNRGSTPYGGVKLEDLIVKDGLTDVYNKIHMGSCAENTAKKLNIARNEQDAYAINSYTRSKAAWEAGKFGNEVIPVTVTVKGQPDVVVKEDEEYKRVDFSKVPKLKTVFQKENGTVTAANASTLNDGAAALVLMTADAAKRLNVTPLARIVAFADAAVEPIDFPIAPVYAASMVLKDVGLKKEDIAMWEVNEAFSLVVLANIKMLEIDPQKVNINGGAVSLGHPIGMSGARIVGHLTHALKQGEYGLASICNGGGGASAMLIQKL",0.7481,-0.126,–
"sp¦O43390¦HNRPR_HUMAN (protein, UniProt O43390 2-633, looked up) Heterogeneous nuclear …: ANQVNGNAVQLKEEEEPMDTSSVTHTEHYKTLIEAGLPQKVAERLDEIFQTGLVAYVDLDERAIDALREFNEEGALSVLQQFKESDLSHVQNKSAFLCGVMKTYRQREKQGSKVQESTKGPDEAKIKALLERTGYTLDVTTGQRKYGGPPPDSVYSGVQPGIGTEVFVGKIPRDLYEDELVPLFEKAGPIWDLRLMMDPLSGQNRGYAFITFCGKEAAQEAVKLCDSYEIRPGKHLGVCISVANNRLFVGSIPKNKTKENILEEFSKVTEGLVDVILYHQPDDKKKNRGFCFLEYEDHKSAAQARRRLMSGKVKVWGNVVTVEWADPVEEPDPEVMAKVKVLFVRNLATTVTEEILEKSFSEFGKLERVKKLKDYAFVHFEDRGAAVKAMDEMNGKEIEGEEIEIVLAKPPDKKRKERQAARQASRSTAYEDYYYHPPPRMPPPIRGRGRGGGRGGYGYPPDYYGYEDYYDDYYGYDYHDYRGGYEDPYYGYDDGYAVRGRGGGRGGRGAPPPPRGRGAPPPRGRAGYSQRGAPLGPPRGSRGGRGGPAQQQRGRGSRGSRGNRGGNVGGKRKADGYNQPDSKRRQTNNQQNWGSQPIAQQPLQQGGDYSGNYGYNNDNQEFYQDTYGQQWK",0.7565,-0.1212,–
"sp¦P18859¦ATP5J_HUMAN (protein, UniProt P18859 33-108, looked up) ATP synthase peripheral stalk …: NKELDPIQKLFVDKIREYKSKRQTSGGPVDASSEYQQELERELFKLKQMFGNADMNTFPTFKFEDPKFEVIEKPQA",0.7532,-0.1231,–
"sp¦P00966¦ASSY_HUMAN (protein, UniProt P00966 1-412, looked up) Argininosuccinate synthase: MSSKGSVVLAYSGGLDTSCILVWLKEQGYDVIAYLANIGQKEDFEEARKKALKLGAKKVFIEDVSREFVEEFIWPAIQSSALYEDRYLLGTSLARPCIARKQVEIAQREGAKYVSHGATGKGNDQVRFELSCYSLAPQIKVIAPWRMPEFYNRFKGRNDLMEYAKQHGIPIPVTPKNPWSMDENLMHISYEAGILENPKNQAPPGLYTKTQDPAKAPNTPDILEIEFKKGVPVKVTNVKDGTTHQTSLELFMYLNEVAGKHGVGRIDIVENRFIGMKSRGIYETPAGTILYHAHLDIEAFTMDREVRKIKQGLGLKFAELVYTGFWHSPECEFVRHCIAKSQERVEGKVQVSVLKGQVYILGRESPLSLYNEELVSMNVQGDYEPTDATGFININSLRLKEYHRLQSKVTAK",–,–,Fold Change [3]: 0.3334; Log (Fold Change) [3]: -0.477
"sp¦Q99986¦VRK1_HUMAN (protein, UniProt Q99986 1-396, looked up) Serine/threonine-protein …: MPRVKAAQAGRQSSAKRHLAEQFAVGEIITDMAKKEWKVGLPIGQGGFGCIYLADMNSSESVGSDAPCVVKVEPSDNGPLFTELKFYQRAAKPEQIQKWIRTRKLKYLGVPKYWGSGLHDKNGKSYRFMIMDRFGSDLQKIYEANAKRFSRKTVLQLSLRILDILEYIHEHEYVHGDIKASNLLLNYKNPDQVYLVDYGLAYRYCPEGVHKEYKEDPKRCHDGTIEFTSIDAHNGVAPSRRGDLEILGYCMIQWLTGHLPWEDNLKDPKYVRDSKIRYRENIASLMDKCFPEKNKPGEIAKYMETVKLLDYTEKPLYENLRDILLQGLKAIGSKDDGKLDLSVVENGGLKAKTITKKRKKEIEESKEPGVEDTEWSNTQTEEAIQTRSRTRKRVQK",–,–,Fold Change [2]: 0.7448; Log (Fold Change) [2]: -0.128
